Reference: patent publication US20030172404A1, “Method of modifying plant characters by the targeted expression of a cell cycle control protein” (priority 1999, published 2003)
Blank lines part the entries; values can stand above or below the molecule they belong to.

Tests used:
[1] = tested on: dexamethasone-inducible Cdc25 gene; assay: Induction of Cdc25 mRNA and protein (northern and western blot); assay type: cell-based, N. plumbaginifolia; details: inducible cell lines; 12 h induction
Description: FIG. 1a is a copy of a photographic representation of a northern blot hybridisation showing the induction of Cdc25 mRNA in tobacco cells containing a dexamethasone-inducible Cdc25 gene, in the absence of exogenous cytokinin. […] Total RNA was extracted from tobacco cells either in the absence of added dexamethasone (lane 0), or after 12 h induction with […], or 0.10 μM, or 1.00 μM, or 10.00 μM dexamethasone and then loaded onto agarose gels (60 μg aliquots RNA per lane), transferred to membrane support and probed with a Cdc25-specific probe.
FIG. 1b is a copy of a photographic representation of a western blot showing the induction of p67^Cdc25 protein in tobacco cells containing a dexamethasone-inducible Cdc25 gene, in the absence of exogenous cytokinin. […] Total protein was extracted from tobacco cells either in the absence of added dexamethasone (lane 1), or after 12 h induction with 0.01 μM dexamethasone (Lane 2), or 0.10 μM dexamethasone (Lane 3), or 1.00 μM dexamethasone (Lane 4), or 10.00 µM dexamethasone (Lane 5) and then loaded onto SDS/polyacrylamide gels ([…] aliquots total soluble p67^cdc25 protein per lane), transferred to membrane support and probed with antibody specific for the Cdc25-specific probe. p67^Cdc25 was detected by western blot of 50 μg aliquots of total soluble p67^Cdc25 protein. […]

[2] = tested on: tobacco cells containing a dexamethasone-inducible Cdc25 gene; details: auxin only
[3] = tested on: tobacco Cdc2 protein, designated Cdc2a
[4] = molecular target: tyrosine phosphorylated Cdc2 from arrested Cdc25-22 mutant fission yeast, P04551
[5] = molecular target: tobacco Cdc2 protein, designated Cdc2a; remark: listed apart in the source
[6] = tested on: plant Cdc2 enzyme; assay: In vitro activation of plant Cdc2 histone kinase by GST-Cdc25; assay type: biochemical, tobacco
Source text: FIG. 2e is a graphical representation showing the change in activity of Cdc2 histone kinase in transgenic tobacco cells containing a dexamethasone-inducible Cdc25 gene, progressing from the late G2 phase hormonal control point into division and following their stimulation with cytokinin. The Cdc2 histone kinase was purified using p13^suc1 beads and treated with GST-Cdc25 fusion protein that had been produced in Escherichia coli cells.
Both Cdc2 and Cdc25 enzyme activities were extracted from tobacco cells, by grinding the cells in liquid nitrogen. For Cdc2 extraction, NDE buffer containing 25 mM HEPES (pH 7.2) with protease and phosphatase inhibitors was used. For Cdc25 extraction, PDE buffer, containing 25 mM MOPS (pH 7.2), 100 mM NaCl, 10 mM DTT, 5 mM EDTA, 1mM EGTA, 1% NP-40, 50 mM NaF, 0.5 mM PMSF, 3 μg ml^−1 leupeptin, and 20 μg ml^−1 aprotinin, was used.
To measure Cdc2 activity, the phosphorylation of H1 histone was followed.
We tested this by investigating whether Cdc25 enzyme could activate Cdc2 from cells in prophase and whether the extent of activation by Cdc25 declined when activation had already occurred in vivo. […] After 12 hours, Cdc2 activity declined during anaphase and the enzyme then became unresponsive to GST-Cdc25, consistent with the anaphase decline in activity being due to proteolysis of cyclin, as observed for cyclin 1b in maize mitosis.

tyrosine phosphorylated Cdc2 from arrested Cdc25-22 mutant fission yeast, P04551, sequence (P04551 whole entry, looked up, change not shown, tested part not stated): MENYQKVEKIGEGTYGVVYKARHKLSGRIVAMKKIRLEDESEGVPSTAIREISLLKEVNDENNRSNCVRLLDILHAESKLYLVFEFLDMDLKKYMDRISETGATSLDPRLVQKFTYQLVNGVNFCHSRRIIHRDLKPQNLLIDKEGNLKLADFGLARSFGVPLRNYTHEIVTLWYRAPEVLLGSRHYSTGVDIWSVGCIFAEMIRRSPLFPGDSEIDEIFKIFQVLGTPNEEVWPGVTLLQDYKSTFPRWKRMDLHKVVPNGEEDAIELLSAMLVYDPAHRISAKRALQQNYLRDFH

Molecule: C[C@@H]1C[C@H]2[C@@H]3CCC4=CC(=O)C=C[C@]4(C)[C@@]3(F)[C@@H](O)C[C@]2(C)[C@@]1(O)C(=O)CO [dexamethasone]
concentration at which Cdc25 mRNA and protein accumulated [1]: 0.01 to 10 µM
dexamethasone concentration that induced division ([2]; cells arrested at G2 phase hormonal control point, no cytokinin, 12 h induction): 0.01 to 10 µM
optimum concentration for induction of division ([2]; independent clones, G2-arrested cells): 0.1 µM

Molecule: plant Cdc25 protein (67 kDa tobacco protein)
Cdc2 histone kinase activity after incubation with immunoprecipitated Cdc25 [3]: non-transgenic plant cells also contain a Cdc25 activity, unambiguously of plant origin, that is both present following cytokinin stimulation and capable of activating plant Cdc2

B1: fission yeast Cdc25 phosphoprotein phosphatase expressed in transgenic tobacco cells (protein)
chain: MDSPLSSLSFTNTLSGKRNVLRPAARELKLMSDRNANQELDFFFPKSKHIASTLVDPFGKTCSTASPASSLAADMSMNMHIDESPALPTPRRTLFRSLSCTVETPLANKTIVSPLPESPSNDALTESYFFRQPASKYSITQDSPRVSSTIAYSFKPKASIALNTTKSEATRSSLSSSSFDSYLRPNVSRSRSSGNAPPFLRSRSSSSYSINKKKGTSGGQATRHLTYALSRTCSQSSNTTSLLESCLTDDTDDFELMSDHEDTFTMGKVADLPESSVELVEDAASIQRPNSDFGACNDNSLDDLFQASPIKPIDMLPKINKDIAFPSLKVRSPSPMAFAMQEDAEYDEQDTPVLRRTQSMFLNSTRLGLFKSQDLVCVTPKQSTKESERFISSHVEDLSLPCFAVKEDSLKRITQETLLGLLDGKFKDIFDKCIIIDCRFEYEYLGGHISTAVNLNTKQAIVDAFLSKPLTHRVALVFHCEHSAHRAPHLALHFRNTDRRMNSHRYPFLYYPEVYILHGGYKSFYENHKNRCDPINYVPMNDASHVMTCTKAMNNFKRNATFMRTKSYTFGQSVLASPDVNDSPTAMHSLSTLRRF
activation of yeast Cdc2 H1 histone kinase (phosphorylation of H1 histone) [4]: appearance of Cdc25 activity, which was detected by its activation of yeast Cdc2 Hi histone kinase

B2: GST-Cdc25 catalytic core fusion protein synthesised in Escherichia coli (protein)
chain: SSHVEDLSLPCFAVKEDSLKRITQETLLGLLDGKFKDIFDKCIIIDCRFEYEYLGGHISTAVNLNTKQAIVDAFLSKPLTHRVALVFHCEHSAHRAPHLALHFRNTDRRMNSHRYPFLYYPEVYILHGGYKSFYENHKNRCDPINYVPMNDASHVMTCTKAMNNFKRNATFMRTKSYTFGQSVLASPDVNDSPTAMHSLSTLRRF
Cdc2 histone kinase activity after treatment with GST-Cdc25 [5]: excess bacterially-synthesised GST-Cdc25 could activate plant Cdc2 enzyme that was extracted in prophase between 3 hours and 12 hours

response of Cdc2 to GST-Cdc25 in anaphase ([6]; Cdc2 extracted after 12 hours): unresponsive
activation of plant Cdc2 enzyme ([6]; excess bacterially-synthesised GST-Cdc25, Cdc2 extracted in prophase between 3 hours and 12 hours): could activate plant Cdc2 enzyme
B3: GST-Cdc25: recombinant GST-Cdc25 catalytic core fusion protein synthesised in Escherichia coli (protein)
chain: B2 chain
modifications: left off: a dimerising Fc or GST
notes: recombinant GST-Cdc25 catalytic core fusion protein synthesised in Escherichia coli
